This note sets out measurements from US20230365667A1 (Merck Sharp & Dohme, published 2023).

Changes are numbered by the printed parent chain.

In this assay the target is T1, Abeta peptide (40-amino acid Abeta peptide, SEQ ID NO: 1), biotinylated (human, N-terminal biotin or C-terminal lysine-linked biotin, separated from the peptide by a PEG6 linker).
T1 construct: Synthesized by Genscript; also called amyloid beta; test peptide
Kind of assay: BLI (Octet HTX), biotinylated Abeta on streptavidin sensors, 1 uM VHH, 1:1 fit. The method, then: Binding affinity was measured using Biolayer Interferometry (BLI) with a ForteBio Octet HTX instrument. Biotinylated antigen was loaded onto streptavidin biosensors at a concentration of 100 nM in kinetics buffer (PBS+1% BSA). The binding experiments were performed with the following steps: 1) baseline in kinetics buffer for 30 seconds, 2) loading of antigen for 180 seconds, to achieve a loading response of at least 1 nm, 3) baseline for 60 seconds, 4) association of 1 μM VHH for 300 seconds, and 5) dissociation into kinetics buffer for 180 seconds. Curves were fit to a 1:1 binding model using the ForteBio software. A negative control was included in all plates, which was un-transfected mammalian cells subjected to the same purification process, to account for the effect of any carryover protein contaminants from cell culture.
In general terms: In BLI a coated tip is dipped into the sample, and binding shifts an interference pattern.

T1 sequence (peptide, as listed by the source): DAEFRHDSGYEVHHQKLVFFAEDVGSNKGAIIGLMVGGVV

B1: vhhLib01-49 (VHH)
VHH: QVQLVESGGGLVQPGGSLRLSCAASGSIFSHNTMGWYRQAPGKQRELVAAINSGGSTNYADSVKGRFTISRDNAKNTVYLQMNSLKPEDTAVYYCARYIQTYTWGYFDYWGQGTLVTVSS
notes: The entry as printed includes HHHHHH
Usually Kd stands for the concentration at which binding is half-saturated. A higher Kd goes with weaker binding. The koff is the first-order rate constant of dissociation. Read a high koff as fast dissociation. For orientation: kon means a measure of how fast the partners come together. Higher therefore signals faster complex formation. B1: the Kd worked out at 116 nM, the off-rate (koff) is 0.000734 s⁻¹ and the kon worked out at 6320 M⁻¹ s⁻¹.

B2: vhhLib02-26 (VHH)
VHH: EVQLVESGGGLVQPGGSLRLSCAASGFTFSAYIMSWYRQAPGKQRELVGAIVSGGLTYYADSVKGRFTISRDNSKNTLYLQMNSLRAEDTAVYYCARHWRWYDSNLVFDLWGQGTLVTVSS
notes: as for B1
For B2, the equilibrium dissociation constant (Kd) was 249 nM, the off-rate constant (koff) is 0.0137 s⁻¹ and the association rate constant (kon) amounted to 55000 M⁻¹ s⁻¹.

B3: vhhLib02-37 (VHH)
VHH: EVQLVESGGGLVQPGGSLRLSCAASGFTFSDYVMSWYRQAPGKQRELVSAIISGEDTYYADSVKGRFTISRDNSKNTLYLQMNSLRAEDTAVYYCARYVHKSTWYYFDHWGQGTLVTVSS
notes: The entry as printed includes HHHHHH; also called vhbLib02-37
Molecule B3 registered an equilibrium dissociation constant (Kd) of 328 nM, an off-rate constant (koff) of 0.00105 s⁻¹ and an association rate constant (kon) of 3210 M⁻¹ s⁻¹.

B4: vhhLib05-83 (VHH)
VHH: EVQLLESGGGLVQPGGSLRLSCAASGFTFSNYAMSWVRQAPGKQREWVSAISGSGGSTYYADSVKGRFTISRDNSKNTLYLQMNSLRAEDTAVYYCARLFLQQADGLYYYYAFDPWGQGTPVTVSS
notes: The entry as printed includes a doubled TLVTVSS-like stretch and HHHHHH
B4 came in with a dissociation constant (Kd) of 292 nM, a dissociation rate constant (koff) of 0.00112 s⁻¹ and a kon of 3830 M⁻¹ s⁻¹.

B5: vhhLib01-58 (VHH)
VHH: QVQLVESGGGLVQPGGSLRLSCAASGSIFSPNHMGWYRQAPGKQRELVAAIYSGGTTNYADSVKGRFTISRDNAKNTVYLQMNSLKPEDTAVYYCARRTFLRGWSGYLPWFDVWGQGTLVTVSS
notes: as for B1
The molecule B5 displayed a Kd of 264 nM, a koff of 0.0045 s⁻¹ and a kon of 17000 M⁻¹ s⁻¹.

B6: vhhLib01-75 (VHH)
VHH: QVQLVESGGGLVQPGGSLRLSCAASGSIFSSNRMGWYRQAPGKQRELVAAIFSGGHTNYADSVKGRFTISRDNAKNTVYLQMNSLKPEDTAVYYCARPVDWSGPFDIWGQGTLVTVSS
notes: as for B1
Molecule B6 had a Kd of 185 nM, a koff of 0.00324 s⁻¹ and an on-rate (kon) of 17500 M⁻¹ s⁻¹.

B7: vhhLib02-91 (VHH)
VHH: EVQLVESGGGLVQPGGSLRLSCAASGFTVSDYHMSWYRQAPGKQRELVSVILSGGRTYYADSVKGRFTISRDNSKNTLYLQMNSLRAEDTAVYYCARADAIFPWFDVWGQGTLVTVSS
notes: The entry as printed includes HHHHHH; also called 09BHK
Turning to B7, the affinity, expressed as Kd, was 43.1 nM; the koff was determined as 0.00046 s⁻¹; the association rate constant (kon) turned out to be 10700 M⁻¹ s⁻¹.

B8: vhhLib01-3 (VHH)
VHH: QVQLVESGGGLVQPGGSLRLSCAASGSIFSFNLMGWYRQAPGKQRELVAAINSGGSTNYADSVKGRFTISRDNAKNTVYLQMNSLKPEDTAVYYCARDYTVYVSYYDGRFDYWGQGTLVTVSS
notes: as for B1
Take B8: the dissociation constant Kd came out at 239 nM, the off-rate constant (koff) stood at 0.00353 s⁻¹ and the on-rate (kon) amounted to 14800 M⁻¹ s⁻¹.

B9: vhhLib05-33 (VHH)
VHH: EVQLLESGGGLVQPGGSLRLSCAASGFTFSSYAMSWVRQAPGKQREWVSAISGSGGSTYYADSVKGRFTISRDNSKNTLYLQMNSLRAEDTAVYYCARLQGVQSDEVYYNYFDVWGQGTLVTVSS
notes: The entry as printed includes a doubled TLVTVSS and HHHHHH; also called vhbLib05-33
On to B9, for which the equilibrium dissociation constant (Kd) is 633 nM, the koff came to 0.00297 s⁻¹ and the on-rate constant (kon) stood at 4680 M⁻¹ s⁻¹.

B10: vhhLib05-28 (VHH)
VHH: B9 VHH with S25A, Q100S, G101H, V102N, Q103S, S104Q, D105G, E106T, Y108V, V114I
notes: The entry as printed includes a doubled TLVTVSS and HHHHHH
B10 registered a Kd of 114 nM, a koff of 0.000725 s⁻¹ and a kon of 6370 M⁻¹ s⁻¹.

B11: vhhLib05-78 (VHH)
VHH: B9 VHH with S35T, Q100A, G101T, V102H, Q103V, S104D, D105N, E106G, V107L, Y108G
notes: as for B10
Consider B11, for which the Kd was 214 nM, the dissociation rate constant (koff) came to 0.00133 s⁻¹ and the association rate constant (kon) was found to be 6200 M⁻¹ s⁻¹.

B12: vhhLib01-86 (VHH)
VHH: QVQLVESGGGLVQPGGSLRLSCAASGSIFSANHMGWYRQAPGKQRELVAAILSGGVTNYADSVKGRFTISRDNAKNTVYLQMNSLKPEDTAVYYCARGQVDTKYGYYYFDSWGQGTLVTVSS
notes: The entry as printed includes a doubled TLVTVSS and HHHHHH; also called vhbLib01-86
In the case of B12, binding was put at a Kd of 430 nM, the off-rate (koff) was 0.0033 s⁻¹ and the kon was determined as 7670 M⁻¹ s⁻¹.

B13: vhhLib01-48 (VHH)
VHH: QVQLVESGGGLVQPGGSLRLSCAASGSIFSANIMGWYRQAPGKQRELVAAIVSGGYTNYADSVKGRFTISRDNAKNTVYLQMNSLKPEDTAVYYCARDQDAFDHVGQYFDHWGQGTLVTVSS
notes: as for B1
B13 showed a Kd of 153 nM, a koff of 0.00333 s⁻¹ and an on-rate (kon) of 21800 M⁻¹ s⁻¹.

B14: vhhLib02-64 (VHH)
VHH: EVQLVESGGGLVQPGGSLRLSCAASGFTFSGYFMSWYRQAPGKQRELVSVINSGGSTYYADSVKGRFTISRDNSKNTLYLQMNSLRAEDTAVYYCARGRVATGGGYGFVHYFDVWGQGTLVTVSS
notes: as for B1
For the molecule B14, the affinity, expressed as Kd, was 210 nM; the dissociation rate constant (koff) is 0.0029 s⁻¹; the on-rate constant (kon) is 13800 M⁻¹ s⁻¹.

B15: vhhLib05-25 (VHH)
VHH: EVQLLESGGGLVQPGGSLRLSCAASGFTFSSYAMSWVRQAPGKQREWVSAISGSGGSTYYADSVKGRFTISRDNSKNTLYLQMNSLRAEDTAVYYCARHRQADGITYFDIWGQGTLVTVSS
notes: as for B10
As for B15, the Kd is 23.9 nM, the off-rate constant (koff) was determined as 0.000337 s⁻¹ and the kon was determined as 14100 M⁻¹ s⁻¹.

B16: vhhLib05-14 (VHH)
VHH: B15 VHH with H99L, R100S, Q101I, A102V, G104V, I105V, Y107V, I110V
notes: as for B10
In the case of B16, binding was characterised by a dissociation constant (Kd) of 39.9 nM, the off-rate constant (koff) was 0.000443 s⁻¹ and the on-rate constant (kon) was determined as 11100 M⁻¹ s⁻¹.

B17: vhhLib05-5 (VHH)
VHH: B15 VHH with H99L, R100D, Q101Y, A102T, T106N, I110Y
notes: as for B10
Consider B17, for which the Kd came to 189 nM, the koff worked out at 0.000882 s⁻¹ and the association rate constant (kon) was 4660 M⁻¹ s⁻¹.

B18: vhhLib01-2 (VHH)
VHH: QVQLVESGGGLVQPGGSLRLSCAASGSIFSANHMGWYRQAPGKQRELVAAISSGGLTNYADSVKGRFTISRDNAKNTVYLQMNSLKPEDTAVYYCARHQTKIYNLHYYYFDYWGQGTLVTVSS
notes: as for B1
B18 registered a Kd of 212 nM, an off-rate (koff) of 0.00632 s⁻¹ and an on-rate (kon) of 29800 M⁻¹ s⁻¹.

B19: vhhLib05-8 (VHH)
VHH: EVQLLESGGGLVQPGGSLRLSCAASGFTFSSYAMSWVRQAPGKQREWVSAISGSGGRTYYADSVKGRFTISRDNSKNTLYLQMNSLRAEDTAVYYCARHSIPVDGIVAFDHWGQGTLVTVSS
notes: The entry as printed includes a doubled TLVTVSS and HHHHHH; also called 13BHK
For B19, the affinity, expressed as Kd, was 25.4 nM; the koff amounted to 0.000269 s⁻¹; the kon is 10600 M⁻¹ s⁻¹.

B20: vhhLib05-10 (VHH)
VHH: B19 VHH with R57S, H99V, S100V, I101K, P102V, V103D, G105I, I106V, V107H, H111I
notes: as for B10
In turn, B20 came in with a Kd of 176 nM, a koff of 0.00127 s⁻¹ and a kon of 7170 M⁻¹ s⁻¹.

B21: vhhLib02-93 (VHH)
VHH: EVQLVESGGGLVQPGGSLRLSCAASGFTFSDYHMSWYRQAPGKQREPVSVINSGGYTYYADSVKGRFTISRDNSKNTLYLQMNSLRAEDTAVYYCARAQAAHYLYGYFDIWGQGTLVTVSS
notes: as for B1
For the molecule B21, binding was put at a Kd of 469 nM, the koff was found to be 0.00314 s⁻¹ and the kon is 6700 M⁻¹ s⁻¹.

B22: vhhLib05-49 (VHH)
VHH: EVQLLESGGGLVQPGGSLRLSCAASGFTFSSYAMSWVRQAPGKQREWVSAISGSGGSTYYADSVKGRFTISRDNSKNTLYLQMNSLRAEDTAVYYCARDTNQPYHGRYVYTYDFDVWGQGTLVTVSS
notes: also called 20BHK
In turn, B22 registered a dissociation constant Kd of 5.3 nM, a dissociation rate constant (koff) of 6.73e-05 s⁻¹ and an association rate constant (kon) of 12600 M⁻¹ s⁻¹.

B23: vhhLib02-53 (VHH)
VHH: EVQLVESGGGLVQPGGSLRLSCAASGFTFSRYLMSWYRQAPGKQRELVGAIASGGVTYYADSVKGRFTISRDNSKNTLYLQMNSLRAEDTAVYYCARGNPSERLYYYFDYWGQGTLVTVSS
notes: The entry as printed includes HHHHHH; also called 06BHK
B23 registered a dissociation constant Kd of 42.6 nM, a koff of 0.000447 s⁻¹ and a kon of 10500 M⁻¹ s⁻¹.

B24: vhhLib05-21 (VHH)
VHH: EVQLLESGGGLVQPGGSLRLSCAASGFTFSNYAMSWVRQAPGKQREWVSVISGNGSSTYYADSVKGRFTISRDNSKNTLYLQMNSLRAEDTAVYYCARLVQLPWVPISAFDVWGQGTLVTVSS
notes: The entry as printed includes a doubled TLVTVSS and HHHHHH; also called 16BHK
Molecule B24 returned a dissociation constant Kd of 104 nM, a koff of 0.00111 s⁻¹ and a kon of 10700 M⁻¹ s⁻¹.

B25: vhhLib01-34 (VHH)
VHH: QVQLVESGGGLVQPGGSLRLSCAASGSIFSVNRMGWYRQAPGKQRELVAAIISGGATNYADSVKGRFTISRDNAKNTVYLQMNSLKPEDTAVYYCARRPAPNGRYHSWYAFDYWGQGTLVTVSS
notes: as for B1
With B25, the Kd was determined as 367 nM, the koff turned out to be 0.00268 s⁻¹ and the kon was 7320 M⁻¹ s⁻¹.

B26: vhhLib02-21 (VHH)
VHH: EVQLVESGGGLVQPGGSLRLSCAASGFTFSLYTMSWYRQAPGKQRELVSAISSGGSTYYADSVKGRFTISRDNSKNTLYLQMNSLRAEDTAVYYCARYDYSWWYFDLWGQGTLVTVSS
notes: as for B1
Molecule B26 came in with a dissociation constant (Kd) of 244 nM, a dissociation rate constant (koff) of 0.000724 s⁻¹ and a kon of 2970 M⁻¹ s⁻¹.
